Holding throughout (format): ADME, microsomes
Substrate in data set [1]: COCCCOc1cc(C[C@@H](C[C@H](N)[C@@H](O)C[C@H](C(=O)NCC(C)(C)C(N)=O)C(C)C)C(C)C)ccc1OC
The data set can be described thus: Enzyme kinetics constant (Km value) for CYP3A7 was determined in human liver microsome incubated with [14C]SPP100 hemifumarate. Background: Liver microsomes are a subcellular fraction often used to study metabolism.

Substrate in data set [2]: COCCCOc1cc(C[C@@H](C[C@H](N)[C@@H](O)C[C@H](C(=O)NCC(C)(C)C(N)=O)C(C)C)C(C)C)ccc1OC
The data set can be described thus: Enzyme kinetics constant (Km value) for CYP4A11 was determined in human liver microsome incubated with [14C]SPP100 hemifumarate.

Substrate in data set [3]: COCCCOc1cc(C[C@@H](C[C@H](N)[C@@H](O)C[C@H](C(=O)NCC(C)(C)C(N)=O)C(C)C)C(C)C)ccc1OC
The data set can be described thus: Enzyme kinetics constant (Km value) for CYP4F2 was determined in human liver microsome incubated with [14C]SPP100 hemifumarate.

Substrate in data set [4]: COCCCOc1cc(C[C@@H](C[C@H](N)[C@@H](O)C[C@H](C(=O)NCC(C)(C)C(N)=O)C(C)C)C(C)C)ccc1OC
The data set can be described thus: Enzyme kinetics constant (Km value) for CYP2J2 was determined in human liver microsome incubated with [14C]SPP100 hemifumarate.

Substrate in data set [5]: COCCCOc1cc(C[C@@H](C[C@H](N)[C@@H](O)C[C@H](C(=O)NCC(C)(C)C(N)=O)C(C)C)C(C)C)ccc1OC
The data set can be described thus: Enzyme kinetics constant (Km value) for CYP3A5 was determined in human liver microsome incubated with [14C]SPP100 hemifumarate.

Substrate in data set [6]: COCCCOc1cc(C[C@@H](C[C@H](N)[C@@H](O)C[C@H](C(=O)NCC(C)(C)C(N)=O)C(C)C)C(C)C)ccc1OC
The data set can be described thus: Enzyme kinetics constant (Km value) for CYP2D6 was determined in human liver microsome incubated with [14C]SPP100 hemifumarate.

Substrate in data set [7]: COCCCOc1cc(C[C@@H](C[C@H](N)[C@@H](O)C[C@H](C(=O)NCC(C)(C)C(N)=O)C(C)C)C(C)C)ccc1OC
The data set can be described thus: Enzyme kinetics constant (Km value) for CYP4F3B was determined in human liver microsome incubated with [14C]SPP100 hemifumarate.

Substrate in data set [8]: COCCCOc1cc(C[C@@H](C[C@H](N)[C@@H](O)C[C@H](C(=O)NCC(C)(C)C(N)=O)C(C)C)C(C)C)ccc1OC
The data set can be described thus: Enzyme kinetics constant (Km value) for CYP2E1 was determined in human liver microsome incubated with [14C]SPP100 hemifumarate.

B1: Cytochrome P450 3A7 (Homo sapiens) (protein)
chain: MDLIPNLAVETWLLLAVSLILLYLYGTRTHGLFKKLGIPGPTPLPFLGNALSFRKGYWTFDMECYKKYRKVWGIYDCQQPMLAITDPDMIKTVLVKECYSVFTNRRPFGPVGFMKNAISIAEDEEWKRIRSLLSPTFTSGKLKEMVPIIAQYGDVLVRNLRREAETGKPVTLKHVFGAYSMDVITSTSFGVSIDSLNNPQDPFVENTKKLLRFNPLDPFVLSIKVFPFLTPILEALNITVFPRKVISFLTKSVKQIKEGRLKETQKHRVDFLQLMIDSQNSKDSETHKALSDLELMAQSIIFIFAGYETTSSVLSFIIYELATHPDVQQKVQKEIDTVLPNKAPPTYDTVLQLEYLDMVVNETLRLFPVAMRLERVCKKDVEINGMFIPKGVVVMIPSYVLHHDPKYWTEPEKFLPERFSKKNKDNIDPYIYTPFGSGPRNCIGMRFALVNMKLALVRVLQNFSFKPCKETQIPLKLRFGGLLLTEKPIVLKAESRDETVSGA
Usually Km stands for the substrate concentration at which the rate is half of its maximum. The term Vmax denotes the rate approached at saturating substrate. For the protein B1, in data set [1], the Km was determined as 32.6 µM and the Vmax came to 0.000113 µmol/min/mg.

B2: Cytochrome P450 4A11 (Homo sapiens) (protein)
chain: MSVSVLSPSRLLGDVSGILQAASLLILLLLLIKAVQLYLHRQWLLKALQQFPCPPSHWLFGHIQELQQDQELQRIQKWVETFPSACPHWLWGGKVRVQLYDPDYMKVILGRSDPKSHGSYRFLAPWIGYGLLLLNGQTWFQHRRMLTPAFHYDILKPYVGLMADSVRVMLDKWEELLGQDSPLEVFQHVSLMTLDTIMKCAFSHQGSIQVDRNSQSYIQAISDLNNLVFSRVRNAFHQNDTIYSLTSAGRWTHRACQLAHQHTDQVIQLRKAQLQKEGELEKIKRKRHLDFLDILLLAKMENGSILSDKDLRAEVDTFMFEGHDTTASGISWILYALATHPKHQERCREEIHSLLGDGASITWNHLDQMPYTTMCIKEALRLYPPVPGIGRELSTPVTFPDGRSLPKGIMVLLSIYGLHHNPKVWPNPEVFDPFRFAPGSAQHSHAFLPFSGGSRNCIGKQFAMNELKVATALTLLRFELLPDPTRIPIPIARLVLKSKNGIHLRLRRLPNPCEDKDQL
Regarding B2, in data set [2], the Km was 3.1 µM and the maximal velocity (Vmax) was 1.55e-05 µmol/min/mg.

B3: Cytochrome P450 4F2 (Homo sapiens) (protein)
chain: MSQLSLSWLGLWPVAASPWLLLLLVGASWLLAHVLAWTYAFYDNCRRLRCFPQPPRRNWFWGHQGMVNPTEEGMRVLTQLVATYPQGFKVWMGPISPLLSLCHPDIIRSVINASAAIAPKDKFFYSFLEPWLGDGLLLSAGDKWSRHRRMLTPAFHFNILKPYMKIFNESVNIMHAKWQLLASEGSACLDMFEHISLMTLDSLQKCVFSFDSHCQEKPSEYIAAILELSALVSKRHHEILLHIDFLYYLTPDGQRFRRACRLVHDFTDAVIQERRRTLPSQGVDDFLQAKAKSKTLDFIDVLLLSKDEDGKKLSDEDIRAEADTFMFEGHDTTASGLSWVLYHLAKHPEYQERCRQEVQELLKDREPKEIEWDDLAHLPFLTMCMKESLRLHPPVPVISRHVTQDIVLPDGRVIPKGIICLISVFGTHHNPAVWPDPEVYDPFRFDPENIKERSPLAFIPFSAGPRNCIGQTFAMAEMKVVLALTLLRFRVLPDHTEPRRKPELVLRAEGGLWLRVEPLS
On to B3, for which, in data set [3], the Michaelis constant (Km) is 11.3 µM and the Vmax came out at 8.91e-05 µmol/min/mg.

B4: Cytochrome P450 2J2 (Homo sapiens) (protein)
chain: MLAAMGSLAAALWAVVHPRTLLLGTVAFLLAADFLKRRRPKNYPPGPWRLPFLGNFFLVDFEQSHLEVQLFVKKYGNLFSLELGDISAVLITGLPLIKEALIHMDQNFGNRPVTPMREHIFKKNGLIMSSGQAWKEQRRFTLTALRNFGLGKKSLEERIQEEAQHLTEAIKEENGQPFDPHFKINNAVSNIICSITFGERFEYQDSWFQQLLKLLDEVTYLEASKTCQLYNVFPWIMKFLPGPHQTLFSNWKKLKLFVSHMIDKHRKDWNPAETRDFIDAYLKEMSKHTGNPTSSFHEENLICSTLDLFFAGTETTSTTLRWALLYMALYPEIQEKVQAEIDRVIGQGQQPSTAARESMPYTNAVIHEVQRMGNIIPLNVPREVTVDTTLAGYHLPKGTMILTNLTALHRDPTEWATPDTFNPDHFLENGQFKKREAFMPFSIGKRACLGEQLARTELFIFFTSLMQKFTFRPPNNEKLSLKFRMGITISPVSHRLCAVPQV
Turning to B4, in data set [4], the Michaelis constant (Km) is 67 µM and the Vmax is 0.000604 µmol/min/mg.

B5: Cytochrome P450 3A5 (Homo sapiens) (protein)
chain: MDLIPNLAVETWLLLAVSLVLLYLYGTRTHGLFKRLGIPGPTPLPLLGNVLSYRQGLWKFDTECYKKYGKMWGTYEGQLPVLAITDPDVIRTVLVKECYSVFTNRRSLGPVGFMKSAISLAEDEEWKRIRSLLSPTFTSGKLKEMFPIIAQYGDVLVRNLRREAEKGKPVTLKDIFGAYSMDVITGTSFGVNIDSLNNPQDPFVESTKKFLKFGFLDPLFLSIILFPFLTPVFEALNVSLFPKDTINFLSKSVNRMKKSRLNDKQKHRLDFLQLMIDSQNSKETESHKALSDLELAAQSIIFIFAGYETTSSVLSFTLYELATHPDVQQKLQKEIDAVLPNKAPPTYDAVVQMEYLDMVVNETLRLFPVAIRLERTCKKDVEINGVFIPKGSMVVIPTYALHHDPKYWTEPEEFRPERFSKKKDSIDPYIYTPFGTGPRNCIGMRFALMNMKLALIRVLQNFSFKPCKETQIPLKLDTQGLLQPEKPIVLKVDSRDGTLSGE
Turning to B5, in data set [5], the Km came out at 28.7 µM and the maximal velocity (Vmax) stood at 0.00135 µmol/min/mg.

B6: Cytochrome P450 2D6 (Homo sapiens) (protein)
chain: MGLEALVPLAVIVAIFLLLVDLMHRRQRWAARYPPGPLPLPGLGNLLHVDFQNTPYCFDQLRRRFGDVFSLQLAWTPVVVLNGLAAVREALVTHGEDTADRPPVPITQILGFGPRSQGVFLARYGPAWREQRRFSVSTLRNLGLGKKSLEQWVTEEAACLCAAFANHSGRPFRPNGLLDKAVSNVIASLTCGRRFEYDDPRFLRLLDLAQEGLKEESGFLREVLNAVPVLLHIPALAGKVLRFQKAFLTQLDELLTEHRMTWDPAQPPRDLTEAFLAEMEKAKGNPESSFNDENLRIVVADLFSAGMVTTSTTLAWGLLLMILHPDVQRRVQQEIDDVIGQVRRPEMGDQAHMPYTTAVIHEVQRFGDIVPLGVTHMTSRDIEVQGFRIPKGTTLITNLSSVLKDEAVWEKPFRFHPEHFLDAQGHFVKPEAFLPFSAGRRACLGEPLARMELFLFFTSLLQHFSFSVPTGQPRPSHHGVFAFLVSPSPYELCAVPR
Consider B6, for which, in data set [6], the Km was found to be 73.6 µM and the Vmax was found to be 0.00548 µmol/min/mg.

B7: Cytochrome P450 4F3 (Homo sapiens) (protein)
chain: MPQLSLSSLGLWPMAASPWLLLLLVGASWLLARILAWTYTFYDNCCRLRCFPQPPKRNWFLGHLGLIHSSEEGLLYTQSLACTFGDMCCWWVGPWHAIVRIFHPTYIKPVLFAPAAIVPKDKVFYSFLKPWLGDGLLLSAGEKWSRHRRMLTPAFHFNILKPYMKIFNESVNIMHAKWQLLASEGSARLDMFEHISLMTLDSLQKCVFSFDSHCQEKPSEYIAAILELSALVTKRHQQILLYIDFLYYLTPDGQRFRRACRLVHDFTDAVIQERRRTLPSQGVDDFLQAKAKSKTLDFIDVLLLSKDEDGKKLSDEDIRAEADTFMFEGHDTTASGLSWVLYHLAKHPEYQERCRQEVQELLKDREPKEIEWDDLAQLPFLTMCIKESLRLHPPVPAVSRCCTQDIVLPDGRVIPKGIICLISVFGTHHNPAVWPDPEVYDPFRFDPKNIKERSPLAFIPFSAGPRNCIGQAFAMAEMKVVLGLTLLRFRVLPDHTEPRRKPELVLRAEGGLWLRVEPLS
As for B7, in data set [7], the Michaelis-Menten constant (Km) was determined as 5 µM and the maximum rate (Vmax) worked out at 0.000121 µmol/min/mg.

B8: Cytochrome P450 2E1 (Homo sapiens) (protein)
chain: MSALGVTVALLVWAAFLLLVSMWRQVHSSWNLPPGPFPLPIIGNLFQLELKNIPKSFTRLAQRFGPVFTLYVGSQRMVVMHGYKAVKEALLDYKDEFSGRGDLPAFHAHRDRGIIFNNGPTWKDIRRFSLTTLRNYGMGKQGNESRIQREAHFLLEALRKTQGQPFDPTFLIGCAPCNVIADILFRKHFDYNDEKFLRLMYLFNENFHLLSTPWLQLYNNFPSFLHYLPGSHRKVIKNVAEVKEYVSERVKEHHQSLDPNCPRDLTDCLLVEMEKEKHSAERLYTMDGITVTVADLFFAGTETTSTTLRYGLLILMKYPEIEEKLHEEIDRVIGPSRIPAIKDRQEMPYMDAVVHEIQRFITLVPSNLPHEATRDTIFRGYLIPKGTVVVPTLDSVLYDNQEFPDPEKFKPEHFLNENGKFKYSDYFKPFSTGKRVCAGEGLARMELFLLLCAILQHFNLKPLVDPKDIDLSPIHIGFGCIPPRYKLCVIPRS
With B8, in data set [8], the Km was determined as 31.9 µM and the Vmax stood at 4.62e-05 µmol/min/mg.

Values taken from ChEMBL document CHEMBL3508693.
